According to patent US10253344B2, “Recombinant production of steviol glycosides” (Conagen Inc., priority 2013, dated 2019):

Legend:
Type in all cases: biochemical
[1] = in vitro conversion of rebaudioside E to rebaudioside D by recombinant UGT76G1, with or without AtSUS1; conditions: with or without AtSUS1, 6 hours
Method: Codon optimized UGT76G1 cDNA was inserted in a bacterial expression vector, and the recombinant UGT76G1 protein was expressed and purified by affinity chromatography. The purified recombinant UGT76G1 polypeptide was analyzed by SDS-PAGE (molecular weight: 65.4 kD, FIG. 9). The rebaudioside E substrate was incubated with the recombinant UGT76G1, with or without AtSUS1, under conditions similar to those used in the Examples above. The products were analyzed by HPLC. […] Addition of recombinant AtSUS in the reaction enhanced the conversion efficiency in UGT-SUS coupling system.

[2] = in vitro conversion of stevioside by recombinant HV1 polypeptide in UGT-SUS coupling reaction system
Method: The purified candidate UGT recombinant polypeptides were assayed for 1,2-19-O-glucose glycosylation activity by using stevioside or Reb A as the substrate (FIGS. 1A-1C). Typically, the recombinant polypeptide (10 μg) was tested in a 200 μl in vitro reaction system. The reaction system contains 50 mM potassium phosphate buffer, pH 7.2, 3 mM MgCl2, 1 mg/ml stevioside or rebaudioside A, 1 mM UDP-glucose. The reaction was performed at 30° C. and terminated by adding 200 μL 1-butanol. The samples were extracted three times with 200 μL 1-butanol. The pooled fraction was dried and dissolved in 70 μL 80% methanol for high-performance liquid chromatography (HPLC) analysis. […]
(§1) The UGT catalyzed glycosylation reaction was be coupled to a UDP-glucose generating reaction catalyzed by a sucrose synthase (such as AtSUS1 of SEQ ID NO:9). […] The purified recombinant AtSUS1 polypeptide was analyzed by SDS-PAGE (molecular weight: 106.3 kD, FIG. 7). […]
(§2) HPLC analysis was then performed using a Dionex UPLC ultimate 3000 system (Sunnyvale, Calif.), including a quaternary pump, a temperature controlled column compartment, an auto sampler and a UV absorbance detector. […]
Accordingly, the catalytic activity of the recombinant HV1 polypeptide for steviol glycoside biosynthesis (e.g., production of rebaudioside D) was further determined in combination with UGT76G1. […] The products were analyzed by HPLC.

[3] = in vitro conversion of Reb E to Reb Z by recombinant HV1 polypeptide and AtSUS1; conditions: Reb E 0.5 mg/ml, HV1 20 μg and AtSUS1 20 μg, 24 hours
Method: An unexpected compound (“Reb Z”) having a HPLC retention time 6.68 minute (see, FIG. 4) that was distinctive from rebaudiosides D and E was produced. This compound represents a novel steviol glycoside, and is termed “rebaudioside Z” (“Reb Z”). To confirm the conversion of Reb E to Reb Z, Reb E substrate (0.5 mg/ml) was incubated with the recombinant HV1 polypeptide (20 μg) and AtSUS1 (20 μg) in a UGT-SUS coupling reaction system ([…]) under conditions similar to those used in the examples above.

[4] = enzymatic activity screening of candidate UGT polypeptides for 1,2-19-O-glucose glycosylation activity (in vitro reaction, HPLC); conditions: stevioside or Reb A as substrate, 30° C.
Method: (§3) The purified candidate UGT recombinant polypeptides were assayed for 1,2-19-O-glucose glycosylation activity by using stevioside or Reb A as the substrate (FIGS. 1A-1C). Typically, the recombinant polypeptide (10 μg) was tested in a 200 μl in vitro reaction system. The reaction system contains 50 mM potassium phosphate buffer, pH 7.2, 3 mM MgCl2, 1 mg/ml stevioside or rebaudioside A, 1 mM UDP-glucose. The reaction was performed at 30° C. and terminated by adding 200 μL 1-butanol. The samples were extracted three times with 200 μL 1-butanol. The pooled fraction was dried and dissolved in 70 μL 80% methanol for high-performance liquid chromatography (HPLC) analysis. Stevia extract (Blue California, Calif.), containing 95% stevioside, was used as stevioside substrate. Rebaudioside A (purity 99%) was also supplied by Blue California.
as §1, §2

[5] = in vitro conversion of rebaudioside A to rebaudioside D by recombinant HV1 polypeptide, with or without AtSUS1
Method: as §3, §1, §2

B1: UGT76G1: recombinant UDP-glycosyltransferase from stevia (SEQ ID NO:11) (protein, listed as Stevia rebaudiana)
chain: MENKTETTVRRRRRIILFPVPFQGHINPILQLANVLYSKGFSITIFHTNFNKPKTSNYPHFTFRFILDNDPQDERISNLPTHGPLAGMRIPIINEHGADELRRELELLMLASEEDEEVSCLITDALWYFAQSVADSLNLRRLVLMTSSLFNFHAHVSLPQFDELGYLDPDDKTRLEEQASGFPMLKVKDIKSAYSNWQILKEILGKMIKQTKASSGVIWNSFKELEESELETVIREIPAPSFLIPLPKHLTASSSSLLDHDRTVFQWLDQQPPSSVLYVSFGSTSEVDEKDFLEIARGLVDSKQSFLWVVRPGFVKGSTWVEPLPDGFLGERGRIVKWVPQQEVLAHGAIGAFWTHSGWNSTLESVCEGVPMIFSDFGLDQPLNARYMSDVLKVGVYLENGWERGEIANAIRRVMVDEEGEYIRQNARVLKQKADVSLMKGGSSYESLESLVSYISSL
With B1 the “1,3-13-O-glucose glycosylation activity (Reb D from Reb E)” value [1] was “showed a 1,3-13-O-glucose glycosylation activity”.

B2: HV1: recombinant UDP-glycosyltransferase polypeptide (SEQ ID NO:6) derived from Hordeum vulgare subsp. vulgare (protein)
chain: MDGNSSSSPLHVVICPWLALGHLLPCLDIAERLASRGHRVSFVSTPRNIARLPPLRPAVAPLVDFVALPLPHVDGLPEGAESTNDVPYDKFELHRKAFDGLAAPFSEFLRAACAEGAGSRPDWLIVDTFHHWAAAAAVENKVPCVMLLLGAATVIAGFARGVSEHAAAAVGKERPAAEAPSFETERRKLMTTQNASGMTVAERYFLTLMRSDLVAIRSCAEWEPESVAALTTLAGKPVVPLGLLPPSPEGGRGVSKEDAAVRWLDAQPAKSVVYVALGSEVPLRAEQVHELALGLELSGARFLWALRKPTDAPDAAVLPPGFEERTRGRGLVVTGWVPQIGVLAHGAVAAFLTHCGWNSTIEGLLFGHPLIMLPISSDQGPNARLMEGRKVGMQVPRDESDGSFRREDVAATVRAVAVEEDGRRVFTANAKKMQEIVADGACHERCIDGFIQQLRSYKA
modifications: Hordeum vulgare
In the case of B2, the “production of rebaudioside D from stevioside” value ([2]; HV1 10 μg in combination with UGT76G1 10 μg and AtSUS1 10 μg) is reported as “rebaudioside D was produced”, the “conversion of stevioside to rebaudioside E” value ([2]; coupled with AtSUS1, in vitro, 20 hours) is reported as “converted stevioside to rebaudioside E” and the “production of Reb Z from Reb E” value [3] is reported as “Reb Z was produced”. The “1,2-19-O-glucose glycosylation activity” value [4] was “showed a 1,2-19-O-glucose glycosylation activity”, the “conversion of rebaudioside A to rebaudioside D” value ([5]; HV1 alone without AtSUS1, after 24 hours) was “only partial rebaudioside A was converted” and the “conversion of rebaudioside A to rebaudioside D” value ([5]; UGT-SUS coupling reaction system (with AtSUS1), 6-24 hours) was “completely converted”.
